Experiment [1] has as its target T1, GST-Shh (recombinant GST-fused human Sonic Hedgehog) (human, UniProt Q15465 24-197).
T1 construct: Expressed in E. coli BL21(DE3), Ni-NTA purified, immobilized on microtiter plates; also called GST-fused Shh; not shown: glutathione-S-transferase (GST) containing a poly-histidine tag, from expression vector pET42b (Novagen); N-terminal fus
The experiment is described as follows: plate assay: immobilized GST-Shh, biotinylated peptide, HRP-streptavidin. The procedure: (§1) Hh protein binding assay. Shh binding activity/affinity of the linear and cyclic peptides was measured using the immunoassay outlined in FIG. 4. For these experiments, GST-Shh was immobilized on 96-well microtiter plates (100 μL of 4 μM GST-Shh solution in PBS buffer), followed by blocking with bovine serum albumin. After washing, each well was incubated with 100 μL of purified FLAG-fused peptide at varying concentrations for 1 hour at room temperature. After washing, each well was added with 100 μL of 1:2500 dilution of HRP-conjugate mouse anti-FLAG polyclonal antibody (Sigma-Aldrich) for 1 hour at room temperature. After washing, 100 μL of 2.2 mM o-phenylenediamine dihydrochloride, 4.2 mM urea hydrogen peroxide, 100 mM dibasic sodium phosphate and 50 mM sodium citrate, pH 5.0 was added to each well, followed by measurement of the absorbance at 450 nm using a Tecan Infinite 1000 plate reader. Equilibrium dissociation constants (KD) were determined by fitting the dose-response curves (FIG. 5) to a 1:1 binding isotherm equation via non-linear regression using SigmaPlot.
For assessing the Shh binding affinity of the cysteine-crosslinked peptides described in Example 4, biotinylated variants of these peptides were prepared by introducing a biotin moiety to the N-terminal peptide of the peptide followed by a tetrapeptide (Gly-Ser-Gly-Ser) (SEQ ID NO: 72) spacer (i.e., peptides Biot-m5-s1 through Biot-m5-s10). The biotinylated peptides were tested in a modified variant of the Shh binding assay described in Example 1, where HRP-conjugated streptavidin is used instead of the HRP-conjugated anti-FLAG antibody.

Experiment [2] deals with T1, GST-Shh (recombinant GST-fused human …). The experiment is described as follows: plate immunoassay: immobilized GST-Shh, purified FLAG-tagged peptide titrated, HRP anti-FLAG antibody. The procedure:
as §1
(§2) Next, all of the yet unmodified positions within the HL2-m3 sequence (relative to HL2-m1) were randomized by site-saturation mutagenesis. These positions correspond to residue Thr1, Leu2, Asp3, Glu6, Glu7, Met8, Asp12 of the HL2-m3 sequence. […]

Experiment [3] addresses T2, GST-Dhh (recombinant GST-fused human Desert Hedgehog) (human, UniProt O43323 23-198).
T2 construct: not shown: glutathione-S-transferase (GST) containing a poly-histidine tag, from expression vector pET42b (Novagen); N-terminal fus
The experiment is described as follows: plate immunoassay: immobilized GST-Dhh against GST-Shh, HRP anti-FLAG antibody. The procedure:
as §1
Hedgehog analog selectivity. KD values for FLAG-HL2-m5 binding to Ihh and Dhh were determined using the colorimetric immunoassay described earlier but using GST-Ihh and GST-Dhh-coated plates, respectively. […] Mean values and standard deviations were calculated from experiments performed at least in triplicate.

Experiment [4] addresses T1, GST-Shh (recombinant GST-fused human …). As to the kind of experiment: plate immunoassay: immobilized GST-Shh, HRP anti-FLAG antibody. The procedure:
as §1, §2

For experiment [5] the target is unchanged. As to the kind of experiment: plate immunoassay: immobilized GST-Shh, FLAG-tagged peptide titrated, HRP anti-FLAG antibody, A450. How it is done:
To measure the binding affinity of the peptides for Shh, an in vitro assay was established in which recombinant GST-fused Shh is immobilized on microtiter plates and then exposed to the FLAG-tagged peptide at varying concentrations. The Shh-bound peptide is then quantified colorimetrically (λ₄₅₀) using a horseradish peroxidase (HRP)-conjugated anti-FLAG antibody.
as §1, with “After washing, each well was added with 100 μL of 1:2500 dilution of HRP-conjugate mouse anti-FLAG polyclonal antibody (Sigma-Aldrich) for 1 hour at room temperature.” left out

*1 amine or outer side, *2 acyl side, *3 side chain or, on linkers, in order; H or OH if unused. Bridges are numbered along the chain shown (N, C = ends). Where no end group is shown, it is not given here. [ ]: non-standard residue; d: D form. The star is where a group is joined. O2beY = O-alkylated Tyr from O-2-bromoethyl-tyrosine, O-CH2CH2- thioether-linked to Cys, O=C([C@H](Cc1ccc(OCC[*:3])cc1)N[*:1])[*:2]; L‑5 = linker -CH2S(CH2)2SCH2-, C(CSC[*:2])SC[*:1]; Biotin = O=C1N[C@H]2[C@H](CS[C@H]2CCCCC(=O)*)N1; L‑9 = linker -CH2SCH2CH=CHCH2SCH2-; L‑6 = linker -CH2S(CH2)3SCH2-; L‑4 = linker -CH2SCH2SCH2-

B1: Biot-m5-s2 (peptide)
peptide: Biotin-GSGSTLSWCEAMDMCTD-NH2
modifications: linker 9-15 via L‑4
Broadly, the Kd is the constant that tells how readily two partners part at equilibrium. For the molecule B1, the dissociation constant (Kd) in experiment [1] worked out at 3.4 µM.

B2: FLAG-HL2-m5 (peptide)
peptide: MDYKDDDDKGSGSTLSW[O2beY]EAMDMCTD-OH
modifications: bridge 18-24; not fully specified (bridges)
For the molecule B2, in experiment [2], the Kd was 0.17 µM. For the same molecule, in experiment [3], the “fold lower affinity than for Shh” value was determined as 2 fold. Also, in experiment [4], the “fold higher binding affinity for Shh compared to FLAG-HL2-pep” value is about 120 fold.

B3: BIOT-M5-S7 (as labelled in the KD table of Example 5) (peptide)
peptide: GSGSTLSWCEAMDMCTD
modifications: N-terminal biotin; Cys5 and Cys11 crosslinked, by the printed MW 2121.41 with one of the isomeric linkers L-10, L-11, L-12 (drawings; probably L-11); C-terminal amide
notes: it fits the xylene-type linkers
Regarding B3, the dissociation constant Kd in experiment [1] stood at 9.2 µM.

B4: Biot-m5-s1 (peptide)
peptide: Biotin-GSGSTLSWCEAMDMCTD-NH2
modifications: disulfide 9-15
For the molecule B4, in experiment [1], the Kd worked out at 1.7 µM.

B5: Biot-m5-s4 (peptide)
peptide: Biotin-GSGSTLSWCEAMDMCTD-NH2
modifications: linker 9-15 via L‑6
Consider B5, for which the dissociation constant (Kd) in experiment [1] worked out at 6.4 µM.

B6: BIOT-M5-S5 (as labelled in the KD table of Example 5) (peptide)
peptide: Biotin-GSGSTLSWCEAMDMCTD-NH2
modifications: linker 9-15 via L‑9
Turning to B6, the dissociation constant Kd in experiment [1] turned out to be 1.1 µM.

B7: FLAG-HL2-pep (peptide)
peptide: MDYKDDDDKGSGSTLDDMEEMDGLSD
notes: also called linear L2-derived peptide
For the molecule B7, the Kd in experiment [5] was 20 µM.

B8: Biot-m5-s3 (peptide)
peptide: Biotin-GSGSTLSWCEAMDMCTD-NH2
modifications: linker 9-15 via L‑5
Turning to B8, the dissociation constant Kd in experiment [1] was determined as 5.9 µM.

These data come from patent US20210115087A1 (UNIVERSITY OF ROCHESTER, published 2021).
